# Laboratory results: publication PMC12390655 (Viruses, 2025)
# Assays:
# [1] = biological target: bipartite NLS (bpNLS) from the nucleoplasmin; test: native MS
# [2] = biological target: eVP24–KPNA5-ΔIBB complex (human | Ebola virus) (UniProt Q05322); test: native MS
# [3] = biological target: bipartite NLS (bpNLS) from the nucleoplasmin; test: fluorescence polarisation
# [4] = biological target: monopartite NLS peptide (mpNLS) from the SV40 large T antigen (SV40); test: fluorescence polarisation
substance,measurement,setting,value
eVP24–KPNA5-ΔIBB complex (from UniProt Q05322 11-237),stoichiometry N,[1],1
same,stoichiometry N,[2],2
same,Kd,[3],210 nM
same,Kd,[4],5200 nM
